The record followed here is article PMC8897147.

What all share (assay): FRET or BRET
In assay [1] the target is T1, glucagon-like peptide-1 receptor-Rluc8, P43220.
T1 chain: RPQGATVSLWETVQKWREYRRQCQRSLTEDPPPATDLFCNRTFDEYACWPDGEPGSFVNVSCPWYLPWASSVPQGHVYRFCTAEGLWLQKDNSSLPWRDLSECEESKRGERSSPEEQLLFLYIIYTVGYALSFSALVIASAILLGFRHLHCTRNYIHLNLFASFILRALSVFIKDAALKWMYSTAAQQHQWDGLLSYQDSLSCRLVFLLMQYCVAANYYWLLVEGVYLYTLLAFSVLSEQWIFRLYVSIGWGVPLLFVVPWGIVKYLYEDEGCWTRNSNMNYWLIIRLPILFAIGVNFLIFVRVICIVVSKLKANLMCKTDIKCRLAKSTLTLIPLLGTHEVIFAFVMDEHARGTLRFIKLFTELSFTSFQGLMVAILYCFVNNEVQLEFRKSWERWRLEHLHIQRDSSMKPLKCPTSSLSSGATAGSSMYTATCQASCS
The following applies: remark: other sources report otherwise.

Assay [2] concerns the target T2, growth hormone-releasing hormone receptor-Rluc8, Q02643.
T2 chain: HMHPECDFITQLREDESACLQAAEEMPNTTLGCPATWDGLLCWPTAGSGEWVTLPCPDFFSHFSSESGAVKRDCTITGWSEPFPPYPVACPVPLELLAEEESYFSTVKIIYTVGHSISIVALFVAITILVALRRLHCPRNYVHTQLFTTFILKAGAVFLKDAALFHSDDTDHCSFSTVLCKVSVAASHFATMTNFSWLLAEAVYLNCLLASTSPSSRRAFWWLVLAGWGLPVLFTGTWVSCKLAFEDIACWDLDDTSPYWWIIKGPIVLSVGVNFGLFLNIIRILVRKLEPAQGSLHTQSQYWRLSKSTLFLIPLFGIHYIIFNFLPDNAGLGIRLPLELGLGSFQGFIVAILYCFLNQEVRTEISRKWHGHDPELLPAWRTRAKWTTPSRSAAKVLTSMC
The following applies: remark: other sources report otherwise.

For assay [3], the target named is secretin receptor-Rluc8, P47872. The following applies: remark: other sources report otherwise.
Chain of secretin receptor-Rluc8, P47872 (P47872 23-440): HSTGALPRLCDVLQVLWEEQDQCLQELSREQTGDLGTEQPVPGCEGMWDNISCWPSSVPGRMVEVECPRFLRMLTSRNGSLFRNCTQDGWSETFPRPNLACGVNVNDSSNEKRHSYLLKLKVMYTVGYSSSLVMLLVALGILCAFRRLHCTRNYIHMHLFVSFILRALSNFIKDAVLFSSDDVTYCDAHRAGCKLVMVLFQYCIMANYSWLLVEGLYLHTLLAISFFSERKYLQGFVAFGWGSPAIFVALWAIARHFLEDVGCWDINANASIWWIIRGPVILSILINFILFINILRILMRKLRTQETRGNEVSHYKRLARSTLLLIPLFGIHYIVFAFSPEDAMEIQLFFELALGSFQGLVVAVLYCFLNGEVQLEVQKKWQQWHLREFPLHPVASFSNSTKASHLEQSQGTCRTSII
Assay [4] concerns the target SV1, splice variant of GHRHR, -Rluc8.

B1: RAMP1-Ypet (receptor activity-modulating protein 1), O60894 27-148 (natural protein)
chain: CQEANYGALLRELCLTQFQVDMEAVGETLWCDWGRTIRSYRELADCTWHMAEKLGCFWPNAEVDRFFLAVHGRYFRSCPISGRAVRDPPGSILYPFIVVPITVTLLVTALVVWQSKRTEGIV
In the case of B1, the BRET50 (Kd) (intensity ratio of RAMP:receptor) in assay [1] stood at 10.9; in assay [2], 2.43; in assay [3], 1.3.

B2: RAMP2-Ypet (receptor activity-modulating protein 2), O60895 43-175 (natural protein)
chain: QPLPTTGTPGSEGGTVKNYETAVQFCWNHYKDQMDPIEKDWCDWAMISRPYSTLRDCLEHFAELFDLGFPNPLAERIIFETHQIHFANCSLVQPTFSDPPEDVLLAMIIAPICLIPFLITLVVWRSKDSEAQA
Regarding B2, the BRET50 (Kd) (intensity ratio of RAMP:receptor) was 2.23 in assay [1] and 2.41 in assay [3].

B3: RAMP3-Ypet (receptor activity-modulating protein 3) (natural protein)
chain: RAGGCNETGMLERLPLCGKAFADMMGKVDVWKWCNLSEFIVYYESFTNCTEMEANVVGCYWPNPLAQGFITGIHRQFFSNCTVDRVHLEDPPDEVLIPLIVIPVVLTVAMAGLVVWRSKRTDTLL
For B3, the BRET50 (Kd) (intensity ratio of RAMP:receptor) in assay [4] amounted to 5.98.
